Experimental data from patent publication US20100029702A1, “Method For Identification of Compound Having Anti-Anxiety Effect” (priority 2006, published 2010).

Target: T1, ph01207 gene product (Homo sapiens, UniProt O60241, DEL308-362)
T1 construct: oocytes expressing the gene (ph01207 cDNA clones); expressed in transfected cells; host or cells: Xenopus laevis oocytes
T1 sequence (O60241 with tags, fused parts or gaps DEL308-362): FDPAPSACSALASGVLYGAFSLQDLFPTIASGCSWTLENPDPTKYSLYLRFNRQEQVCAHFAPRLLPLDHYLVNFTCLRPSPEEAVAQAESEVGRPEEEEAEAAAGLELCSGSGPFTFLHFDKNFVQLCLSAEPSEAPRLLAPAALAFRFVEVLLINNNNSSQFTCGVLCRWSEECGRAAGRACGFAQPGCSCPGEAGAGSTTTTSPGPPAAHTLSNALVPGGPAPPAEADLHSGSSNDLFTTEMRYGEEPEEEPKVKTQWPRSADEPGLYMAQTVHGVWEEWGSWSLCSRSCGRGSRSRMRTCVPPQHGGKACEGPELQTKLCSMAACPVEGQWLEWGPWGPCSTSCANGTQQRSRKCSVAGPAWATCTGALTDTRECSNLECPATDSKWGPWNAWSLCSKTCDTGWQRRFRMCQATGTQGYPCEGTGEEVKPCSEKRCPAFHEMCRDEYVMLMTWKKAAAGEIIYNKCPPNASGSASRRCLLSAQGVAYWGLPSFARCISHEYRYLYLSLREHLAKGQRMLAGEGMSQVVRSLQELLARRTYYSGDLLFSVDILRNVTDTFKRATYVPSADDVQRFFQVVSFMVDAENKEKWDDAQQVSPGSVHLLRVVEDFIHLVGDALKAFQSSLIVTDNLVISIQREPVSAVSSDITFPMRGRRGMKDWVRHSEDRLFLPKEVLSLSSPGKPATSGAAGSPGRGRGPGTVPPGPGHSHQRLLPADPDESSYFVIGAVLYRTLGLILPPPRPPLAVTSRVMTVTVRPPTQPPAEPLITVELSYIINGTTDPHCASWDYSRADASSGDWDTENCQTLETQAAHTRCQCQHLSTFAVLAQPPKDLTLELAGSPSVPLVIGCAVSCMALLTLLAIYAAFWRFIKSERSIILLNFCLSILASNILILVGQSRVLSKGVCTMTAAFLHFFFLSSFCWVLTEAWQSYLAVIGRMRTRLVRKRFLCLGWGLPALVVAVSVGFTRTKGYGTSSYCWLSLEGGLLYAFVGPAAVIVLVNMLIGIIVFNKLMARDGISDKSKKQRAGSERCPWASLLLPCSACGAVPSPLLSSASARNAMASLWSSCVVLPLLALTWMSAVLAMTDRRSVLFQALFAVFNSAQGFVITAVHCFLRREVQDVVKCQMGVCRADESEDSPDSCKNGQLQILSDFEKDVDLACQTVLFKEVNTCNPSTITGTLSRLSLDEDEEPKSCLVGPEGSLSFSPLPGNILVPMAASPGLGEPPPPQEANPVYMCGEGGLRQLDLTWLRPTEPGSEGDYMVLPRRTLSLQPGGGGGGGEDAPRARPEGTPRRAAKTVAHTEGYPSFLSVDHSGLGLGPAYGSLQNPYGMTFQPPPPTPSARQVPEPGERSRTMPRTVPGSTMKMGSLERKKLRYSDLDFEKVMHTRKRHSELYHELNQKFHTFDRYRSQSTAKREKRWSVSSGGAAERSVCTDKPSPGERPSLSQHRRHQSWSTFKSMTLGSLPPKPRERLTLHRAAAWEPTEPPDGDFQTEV
Test: Intracellular calcium concentration change assay with ph01207#3F8-17 strain: inhibition of the response to CCK-8S
Assay type: cell-based
Settings: 10 nM CCK-8S, wells with buffer
Excerpt: A compound that inhibits a response of the ph01207 gene product to a ligand was identified by an intracellular calcium concentration change assay system using the ph01207-expressing cell strain.
The ph01207-expressing cell strain was constructed as follows. First, a ph01207-expressing vector not containing an epitope tag was constructed by recombination between a ph01207 cDNA clone identified in Example 1 and pcDNA3.1 (Invitrogen) with Asp718I (Boehringer) and NotI (TAKARA). The ph01207-expressing vector was transfected into the CHO-K1 strain, a host cell, using Lipofectamine 2000 (Invitrogen), and the cells were screened for stably-expressing strains by a selective medium containing G418. Expression of the gene introduced into the cell was detected by the FCM analysis using an anti-ph01207 antibody.
As a result, a plurality of cell strains stably expressing ph01207 were obtained. A compound was identified using the ph01207#3F8-17 strain, a clone of these strains.
As a ligand, CCK-8S (Peptide Institute, Inc.) was used. […]
Compounds were specifically identified as follows. […] After reaction, CCK-8S (Peptide Institute, Inc.) and a compound was added, and changes over time in the fluorescence intensity in each well were measured for 80 sec. […] Changes over time in the fluorescence intensity were measured using the FLEX station (Molecular Device).

Change in fluorescence intensity (intracellular Ca2+) after addition of CCK-8S: increased
Substance: cholecystokinin octapeptide sulfated form [CCK-8S]
